{
  "source": "patent US20220143024A1",
  "about": "“METHODS OF USING IMIPRIDONES” (Board of Regents, The University of Texas System, priority 2019, published 2022)",
  "assay_in_all_cases": "BioID-MS +ONC201",
  "key": {"SFXN4 (human)": {"target": "SFXN4 (human) (UniProt Q6P4A7)"}, "TBRG4 (human)": {"target": "TBRG4 (human) (UniProt Q969Z0)"}, "MRPS7 (human)": {"target": "MRPS7 (human) (UniProt Q9Y2R9)"}, "SUCLG1 (human)": {"target": "SUCLG1 (human) (UniProt P53597)", "sequence (P53597 41-346 limits assumed)": "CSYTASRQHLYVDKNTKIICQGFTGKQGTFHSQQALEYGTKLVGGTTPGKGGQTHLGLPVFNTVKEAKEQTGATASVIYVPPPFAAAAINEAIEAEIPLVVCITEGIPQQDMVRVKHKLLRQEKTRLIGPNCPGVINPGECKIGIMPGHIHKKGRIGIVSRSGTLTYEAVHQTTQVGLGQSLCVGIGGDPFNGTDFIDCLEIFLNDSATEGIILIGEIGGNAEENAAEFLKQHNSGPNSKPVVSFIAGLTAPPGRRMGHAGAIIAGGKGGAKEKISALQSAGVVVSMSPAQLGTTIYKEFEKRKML"}, "HSPE1 (human)": {"target": "HSPE1 (human) (UniProt P61604)"}, "SUPV3L1 (human)": {"target": "SUPV3L1 (human) (UniProt Q8IYB8)"}, "ALDH1L2 (human)": {"target": "ALDH1L2 (human) (UniProt Q3SY69)", "sequence (Q3SY69 whole entry)": "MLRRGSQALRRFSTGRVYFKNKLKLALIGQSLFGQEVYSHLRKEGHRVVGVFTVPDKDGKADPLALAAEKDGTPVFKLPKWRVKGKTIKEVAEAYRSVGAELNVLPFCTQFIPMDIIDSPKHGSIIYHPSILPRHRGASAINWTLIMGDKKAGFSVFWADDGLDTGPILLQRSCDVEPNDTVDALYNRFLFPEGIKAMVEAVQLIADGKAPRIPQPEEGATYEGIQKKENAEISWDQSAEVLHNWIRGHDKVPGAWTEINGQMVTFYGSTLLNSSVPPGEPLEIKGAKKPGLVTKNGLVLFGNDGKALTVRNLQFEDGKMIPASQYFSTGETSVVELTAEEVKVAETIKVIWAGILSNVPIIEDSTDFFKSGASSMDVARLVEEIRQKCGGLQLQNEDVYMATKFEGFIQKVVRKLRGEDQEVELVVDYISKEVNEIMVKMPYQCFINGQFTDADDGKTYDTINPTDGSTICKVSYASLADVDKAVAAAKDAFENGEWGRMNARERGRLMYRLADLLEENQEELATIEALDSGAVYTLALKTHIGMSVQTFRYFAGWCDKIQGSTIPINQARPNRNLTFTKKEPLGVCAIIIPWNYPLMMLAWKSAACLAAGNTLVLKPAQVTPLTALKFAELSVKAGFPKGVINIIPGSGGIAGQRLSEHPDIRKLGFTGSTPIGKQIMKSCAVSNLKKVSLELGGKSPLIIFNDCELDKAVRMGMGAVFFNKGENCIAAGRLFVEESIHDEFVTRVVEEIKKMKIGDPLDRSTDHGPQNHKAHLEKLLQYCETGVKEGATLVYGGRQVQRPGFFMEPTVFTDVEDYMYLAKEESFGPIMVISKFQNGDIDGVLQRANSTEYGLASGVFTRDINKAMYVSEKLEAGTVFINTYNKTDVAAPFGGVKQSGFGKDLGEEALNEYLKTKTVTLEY"}, "CHCHD3 (human)": {"target": "CHCHD3 (human) (UniProt Q9NX63)", "sequence (Q9NX63 2-227 limits assumed)": "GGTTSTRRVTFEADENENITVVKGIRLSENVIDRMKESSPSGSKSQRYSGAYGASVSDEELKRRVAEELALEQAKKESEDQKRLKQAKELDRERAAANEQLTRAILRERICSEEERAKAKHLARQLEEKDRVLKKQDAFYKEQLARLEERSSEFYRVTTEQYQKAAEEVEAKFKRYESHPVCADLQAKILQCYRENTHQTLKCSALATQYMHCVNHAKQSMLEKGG"}, "IBA57 (human)": {"target": "IBA57 (human) (UniProt Q5T440)", "sequence (Q5T440 40-356 limits assumed)": "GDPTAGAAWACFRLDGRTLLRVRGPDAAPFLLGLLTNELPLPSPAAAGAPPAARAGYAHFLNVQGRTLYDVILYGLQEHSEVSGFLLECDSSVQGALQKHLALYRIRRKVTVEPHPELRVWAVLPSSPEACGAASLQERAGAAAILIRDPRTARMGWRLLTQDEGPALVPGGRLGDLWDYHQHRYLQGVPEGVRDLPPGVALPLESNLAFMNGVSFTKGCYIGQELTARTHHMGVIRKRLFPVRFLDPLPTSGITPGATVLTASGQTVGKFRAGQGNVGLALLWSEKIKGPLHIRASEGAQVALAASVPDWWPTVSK"}, "CRAT (human)": {"target": "CRAT (human) (UniProt P43155)"}, "OXCT1 (human)": {"target": "OXCT1 (human) (UniProt P55809)", "sequence (P55809 40-520 limits assumed)": "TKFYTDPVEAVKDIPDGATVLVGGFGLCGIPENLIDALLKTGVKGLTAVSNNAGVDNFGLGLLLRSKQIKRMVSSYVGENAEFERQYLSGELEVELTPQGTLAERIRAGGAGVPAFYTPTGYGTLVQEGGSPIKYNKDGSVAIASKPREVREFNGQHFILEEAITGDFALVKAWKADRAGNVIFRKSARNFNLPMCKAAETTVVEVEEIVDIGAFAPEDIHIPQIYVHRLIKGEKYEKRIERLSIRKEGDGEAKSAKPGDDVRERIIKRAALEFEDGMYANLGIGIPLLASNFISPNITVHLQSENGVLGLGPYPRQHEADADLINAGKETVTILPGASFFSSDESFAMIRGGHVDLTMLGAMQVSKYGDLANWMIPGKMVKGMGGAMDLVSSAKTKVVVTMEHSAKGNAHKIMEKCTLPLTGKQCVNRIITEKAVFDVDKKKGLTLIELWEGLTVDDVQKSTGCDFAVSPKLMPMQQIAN"}, "PPA2 (human)": {"target": "PPA2 (human) (UniProt Q9H2U2)"}, "GCDH (human)": {"target": "GCDH (human) (UniProt Q92947)"}, "GRPEL1 (human)": {"target": "GRPEL1 (human) (UniProt Q9HAV7)"}, "MTPAP (human)": {"target": "MTPAP (human) (UniProt Q9NVV4)", "sequence (Q9NVV4 38-582 limits assumed)": "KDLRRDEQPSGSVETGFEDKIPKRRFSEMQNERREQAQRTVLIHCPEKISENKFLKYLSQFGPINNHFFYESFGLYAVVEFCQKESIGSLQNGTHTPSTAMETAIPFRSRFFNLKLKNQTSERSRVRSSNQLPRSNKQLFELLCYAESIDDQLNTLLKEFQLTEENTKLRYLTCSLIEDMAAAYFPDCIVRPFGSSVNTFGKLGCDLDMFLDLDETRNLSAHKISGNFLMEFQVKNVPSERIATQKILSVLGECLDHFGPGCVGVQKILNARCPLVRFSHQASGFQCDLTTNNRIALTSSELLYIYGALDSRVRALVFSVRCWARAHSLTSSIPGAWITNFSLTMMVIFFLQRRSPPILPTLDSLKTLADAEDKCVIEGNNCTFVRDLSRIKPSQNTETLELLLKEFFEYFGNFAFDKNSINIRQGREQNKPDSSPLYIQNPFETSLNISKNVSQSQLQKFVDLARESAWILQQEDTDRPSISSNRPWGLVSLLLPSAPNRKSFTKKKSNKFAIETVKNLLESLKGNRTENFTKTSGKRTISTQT"}, "HADH (human)": {"target": "HADH (human) (UniProt Q16836)"}, "ECSIT (human)": {"target": "ECSIT (human) (UniProt Q9BQ95)"}, "RG9MTD1 (human)": {"target": "RG9MTD1 (human) (UniProt Q7L0Y3)"}, "PRKCA (human)": {"target": "PRKCA (human) (UniProt P17252)"}, "MICU2 (human)": {"target": "MICU2 (human) (UniProt Q8IYU8)", "sequence (Q8IYU8 23-434 limits assumed)": "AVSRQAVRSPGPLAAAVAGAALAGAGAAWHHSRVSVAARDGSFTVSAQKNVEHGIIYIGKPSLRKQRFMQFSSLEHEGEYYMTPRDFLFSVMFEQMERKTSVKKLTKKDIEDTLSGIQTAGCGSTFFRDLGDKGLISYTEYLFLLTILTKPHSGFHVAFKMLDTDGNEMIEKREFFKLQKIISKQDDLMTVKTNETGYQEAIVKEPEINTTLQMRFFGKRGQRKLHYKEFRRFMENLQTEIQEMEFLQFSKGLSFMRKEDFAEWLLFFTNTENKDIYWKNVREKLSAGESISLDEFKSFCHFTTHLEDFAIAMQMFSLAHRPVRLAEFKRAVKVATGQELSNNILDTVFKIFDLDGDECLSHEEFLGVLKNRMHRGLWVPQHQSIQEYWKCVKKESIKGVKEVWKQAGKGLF"}, "HSDL2 (human)": {"target": "HSDL2 (human) (UniProt Q6YN16)", "sequence (Q6YN16 whole entry)": "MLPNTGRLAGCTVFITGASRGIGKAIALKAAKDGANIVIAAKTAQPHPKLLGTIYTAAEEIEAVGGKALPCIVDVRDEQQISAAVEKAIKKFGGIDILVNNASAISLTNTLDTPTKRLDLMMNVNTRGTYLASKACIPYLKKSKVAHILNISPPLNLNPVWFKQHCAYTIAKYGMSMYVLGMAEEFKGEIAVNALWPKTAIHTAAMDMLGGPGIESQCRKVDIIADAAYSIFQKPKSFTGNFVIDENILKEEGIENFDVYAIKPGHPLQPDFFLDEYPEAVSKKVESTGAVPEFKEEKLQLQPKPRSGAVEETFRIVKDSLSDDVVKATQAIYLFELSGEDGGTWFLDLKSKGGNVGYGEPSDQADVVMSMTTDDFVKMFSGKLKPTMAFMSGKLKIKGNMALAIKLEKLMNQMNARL"}, "FECH (human)": {"target": "FECH (human) (UniProt P22830)", "sequence (P22830 55-423 limits assumed)": "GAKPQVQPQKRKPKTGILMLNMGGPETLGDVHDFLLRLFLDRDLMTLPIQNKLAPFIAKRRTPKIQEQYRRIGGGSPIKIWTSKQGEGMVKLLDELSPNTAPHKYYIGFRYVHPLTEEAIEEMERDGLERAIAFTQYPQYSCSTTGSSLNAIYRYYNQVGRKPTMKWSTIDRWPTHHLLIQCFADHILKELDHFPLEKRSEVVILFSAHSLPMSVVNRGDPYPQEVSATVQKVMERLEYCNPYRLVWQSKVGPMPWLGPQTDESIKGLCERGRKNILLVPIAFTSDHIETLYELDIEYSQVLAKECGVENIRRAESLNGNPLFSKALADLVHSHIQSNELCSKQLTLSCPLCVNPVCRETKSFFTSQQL"}, "NDUFV2 (human)": {"target": "NDUFV2 (human) (UniProt P19404)"}, "ALDH2 (human)": {"target": "ALDH2 (human) (UniProt P05091)"}, "C20orf7 (human)": {"target": "C20orf7 (human) (UniProt Q5TEU4)", "sequence (Q5TEU4 37-345 limits assumed)": "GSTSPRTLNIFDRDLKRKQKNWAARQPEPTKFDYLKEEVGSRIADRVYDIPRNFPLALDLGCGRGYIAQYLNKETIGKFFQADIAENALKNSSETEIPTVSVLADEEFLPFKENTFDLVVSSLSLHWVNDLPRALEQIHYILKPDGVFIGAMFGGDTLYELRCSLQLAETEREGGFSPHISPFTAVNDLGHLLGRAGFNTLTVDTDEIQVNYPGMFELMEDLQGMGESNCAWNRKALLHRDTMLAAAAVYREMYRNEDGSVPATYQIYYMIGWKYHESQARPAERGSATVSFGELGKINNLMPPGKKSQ"}, "ACAT1 (human)": {"target": "ACAT1 (human) (UniProt P24752)"}, "MTRF1 (human)": {"target": "MTRF1 (human) (UniProt O75570)"}, "MTHFD2 (human)": {"target": "MTHFD2 (human) (UniProt P13995)"}, "GLRX5 (human)": {"target": "GLRX5 (human) (UniProt Q86SX6)"}, "DCAKD (human)": {"target": "DCAKD (human) (UniProt Q8WVC6)"}, "MRPL54 (human)": {"target": "MRPL54 (human) (UniProt Q6P161)"}, "MRPL19 (human)": {"target": "MRPL19 (human) (UniProt P49406)"}, "HSD17B8 (human)": {"target": "HSD17B8 (human) (UniProt Q92506)"}, "POLG (human)": {"target": "POLG (human) (UniProt P54098)"}, "MRPL40 (human)": {"target": "MRPL40 (human) (UniProt Q9NQ50)"}, "ACO2 (human)": {"target": "ACO2 (human) (UniProt Q99798)"}, "PDK3 (human)": {"target": "PDK3 (human) (UniProt Q15120)"}, "SDHB (human)": {"target": "SDHB (human) (UniProt P21912)"}, "PNPT1 (human)": {"target": "PNPT1 (human) (UniProt Q8TCS8)"}, "COQ6 (human)": {"target": "COQ6 (human) (UniProt Q9Y2Z9)"}, "QRSL1 (human)": {"target": "QRSL1 (human) (UniProt Q9H0R6)"}, "NMNAT3 (human)": {"target": "NMNAT3 (human) (UniProt Q96T66)", "sequence (Q96T66 whole entry)": "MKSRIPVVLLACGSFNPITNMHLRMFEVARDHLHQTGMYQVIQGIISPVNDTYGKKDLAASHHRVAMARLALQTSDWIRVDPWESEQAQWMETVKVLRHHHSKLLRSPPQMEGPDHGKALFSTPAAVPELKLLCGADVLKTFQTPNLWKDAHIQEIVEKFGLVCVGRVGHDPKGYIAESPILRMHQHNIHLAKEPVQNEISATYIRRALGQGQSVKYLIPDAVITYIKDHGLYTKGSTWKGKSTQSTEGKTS"}, "NDUFS6 (human)": {"target": "NDUFS6 (human) (UniProt O75380)"}, "MRPS16 (human)": {"target": "MRPS16 (human) (UniProt Q9Y3D3)"}, "NDUFAF1 (human)": {"target": "NDUFAF1 (human) (UniProt Q9Y375)", "sequence (Q9Y375 25-327 limits assumed)": "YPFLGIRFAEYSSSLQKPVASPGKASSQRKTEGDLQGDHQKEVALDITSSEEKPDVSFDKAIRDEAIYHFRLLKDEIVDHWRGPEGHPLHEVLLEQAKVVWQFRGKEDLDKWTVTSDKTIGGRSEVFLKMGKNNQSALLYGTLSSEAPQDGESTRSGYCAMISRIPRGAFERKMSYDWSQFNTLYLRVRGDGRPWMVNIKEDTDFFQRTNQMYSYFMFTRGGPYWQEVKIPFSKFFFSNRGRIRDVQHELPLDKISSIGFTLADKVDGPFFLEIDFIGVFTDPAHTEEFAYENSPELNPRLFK"}, "UQCRB (human)": {"target": "UQCRB (human) (UniProt P14927)"}, "IDI1 (human)": {"target": "IDI1 (human) (UniProt Q13907)"}, "RPS15A (human)": {"target": "RPS15A (human) (UniProt P62244)"}, "XPNPEP3 (human)": {"target": "XPNPEP3 (human) (UniProt Q9NQH7)"}, "THNSL1 (human)": {"target": "THNSL1 (human) (UniProt Q8IYQ7)"}, "TST (human)": {"target": "TST (human) (UniProt Q16762)"}},
  "data": [
    {"substance": "FlagBirA-ClpP (WT) (from UniProt P06709 1-321; Q16740 57-277) (enzyme)", "values": [
      {"measurement": "Log2 Fold change (vs control)", "setting": "SFXN4 (human)", "value": -0.58, "unit": "log2"},
      {"measurement": "Log2 Fold change (vs control)", "setting": "TBRG4 (human)", "value": 0.28, "unit": "log2"},
      {"measurement": "Log2 Fold change (vs control)", "setting": "MRPS7 (human)", "value": -2.77, "unit": "log2"},
      {"measurement": "Log2 Fold change (vs control)", "setting": "SUCLG1 (human)", "value": -1.44, "unit": "log2"},
      {"measurement": "Log2 Fold change (vs control)", "setting": "HSPE1 (human)", "value": -0.36, "unit": "log2"},
      {"measurement": "Log2 Fold change (vs control)", "setting": "SUPV3L1 (human)", "value": -0.12, "unit": "log2"},
      {"measurement": "Log2 Fold change (vs control)", "setting": "ALDH1L2 (human)", "value": -6.04, "unit": "log2"},
      {"measurement": "Log2 Fold change (vs control)", "setting": "CHCHD3 (human)", "value": -3.46, "unit": "log2"},
      {"measurement": "Log2 Fold change (vs control)", "setting": "IBA57 (human)", "value": -1.05, "unit": "log2"},
      {"measurement": "Log2 Fold change (vs control)", "setting": "CRAT (human)", "value": -4, "unit": "log2"},
      {"measurement": "Log2 Fold change (vs control)", "setting": "OXCT1 (human)", "value": -2.58, "unit": "log2"},
      {"measurement": "Log2 Fold change (vs control)", "setting": "PPA2 (human)", "value": -1.38, "unit": "log2"},
      {"measurement": "Log2 Fold change (vs control)", "setting": "GCDH (human)", "value": -0.17, "unit": "log2"},
      {"measurement": "Log2 Fold change (vs control)", "setting": "GRPEL1 (human)", "value": -5.52, "unit": "log2"},
      {"measurement": "Log2 Fold change (vs control)", "setting": "MTPAP (human)", "value": -0.1, "unit": "log2"},
      {"measurement": "Log2 Fold change (vs control)", "setting": "HADH (human)", "value": -1.3, "unit": "log2"},
      {"measurement": "Log2 Fold change (vs control)", "setting": "ECSIT (human)", "value": -5.36, "unit": "log2"},
      {"measurement": "Log2 Fold change (vs control)", "setting": "RG9MTD1 (human)", "value": -1.3, "unit": "log2"},
      {"measurement": "Log2 Fold change (vs control)", "setting": "PRKCA (human)", "value": -3.58, "unit": "log2"},
      {"measurement": "Log2 Fold change (vs control)", "setting": "MICU2 (human)", "value": -4.31, "unit": "log2"},
      {"measurement": "Log2 Fold change (vs control)", "setting": "HSDL2 (human)", "value": -0.71, "unit": "log2"},
      {"measurement": "Log2 Fold change (vs control)", "setting": "FECH (human)", "value": -1.56, "unit": "log2"},
      {"measurement": "Log2 Fold change (vs control)", "setting": "NDUFV2 (human)", "value": -5.96, "unit": "log2"},
      {"measurement": "Log2 Fold change (vs control)", "setting": "ALDH2 (human)", "value": -0.17, "unit": "log2"},
      {"measurement": "Log2 Fold change (vs control)", "setting": "C20orf7 (human)", "value": -1.21, "unit": "log2"},
      {"measurement": "Log2 Fold change (vs control)", "setting": "ACAT1 (human)", "value": -0.59, "unit": "log2"},
      {"measurement": "Log2 Fold change (vs control)", "setting": "MTRF1 (human)", "value": -4.25, "unit": "log2"},
      {"measurement": "Log2 Fold change (vs control)", "setting": "MTHFD2 (human)", "value": -1.43, "unit": "log2"},
      {"measurement": "Log2 Fold change (vs control)", "setting": "GLRX5 (human)", "value": -5.21, "unit": "log2"},
      {"measurement": "Log2 Fold change (vs control)", "setting": "DCAKD (human)", "value": -3.75, "unit": "log2"},
      {"measurement": "Log2 Fold change (vs control)", "setting": "MRPL54 (human)", "value": -4, "unit": "log2"},
      {"measurement": "Log2 Fold change (vs control)", "setting": "MRPL19 (human)", "value": -3.51, "unit": "log2"},
      {"measurement": "Log2 Fold change (vs control)", "setting": "HSD17B8 (human)", "value": -1.26, "unit": "log2"},
      {"measurement": "Log2 Fold change (vs control)", "setting": "POLG (human)", "value": -4.32, "unit": "log2"},
      {"measurement": "Log2 Fold change (vs control)", "setting": "MRPL40 (human)", "value": -5.09, "unit": "log2"},
      {"measurement": "Log2 Fold change (vs control)", "setting": "ACO2 (human)", "value": -5.46, "unit": "log2"},
      {"measurement": "Log2 Fold change (vs control)", "setting": "PDK3 (human)", "value": -1.55, "unit": "log2"},
      {"measurement": "Log2 Fold change (vs control)", "setting": "SDHB (human)", "value": -0.82, "unit": "log2"},
      {"measurement": "Log2 Fold change (vs control)", "setting": "PNPT1 (human)", "value": 0.32, "unit": "log2"},
      {"measurement": "Log2 Fold change (vs control)", "setting": "COQ6 (human)", "value": -3.7, "unit": "log2"},
      {"measurement": "Log2 Fold change (vs control)", "setting": "QRSL1 (human)", "value": -2.9, "unit": "log2"},
      {"measurement": "Log2 Fold change (vs control)", "setting": "NMNAT3 (human)", "value": -4, "unit": "log2"},
      {"measurement": "Log2 Fold change (vs control)", "setting": "NDUFS6 (human)", "value": -6.32, "unit": "log2"},
      {"measurement": "Log2 Fold change (vs control)", "setting": "MRPS16 (human)", "value": -3.81, "unit": "log2"},
      {"measurement": "Log2 Fold change (vs control)", "setting": "NDUFAF1 (human)", "value": -4.32, "unit": "log2"},
      {"measurement": "Log2 Fold change (vs control)", "setting": "UQCRB (human)", "value": -4.7, "unit": "log2"},
      {"measurement": "Log2 Fold change (vs control)", "setting": "IDI1 (human)", "value": -0.22, "unit": "log2"},
      {"measurement": "Log2 Fold change (vs control)", "setting": "RPS15A (human)", "value": -0.69, "unit": "log2"},
      {"measurement": "Log2 Fold change (vs control)", "setting": "XPNPEP3 (human)", "value": -1.63, "unit": "log2"},
      {"measurement": "Log2 Fold change (vs control)", "setting": "THNSL1 (human)", "value": -1.55, "unit": "log2"},
      {"measurement": "Log2 Fold change (vs control)", "setting": "TST (human)", "value": -5.55, "unit": "log2"}
    ]}
  ]
}
